Source: article PMC6916587, “The roles of factor Va and protein S in formation of the activated protein C/protein S/factor Va inactivation complex” (Journal of Thrombosis and Haemostasis, 2019)

T1: protein S (wild type) (UniProt P07225)
T1 sequence (chain, gamma-carboxyglutamate at 36 (printed as Gla36)): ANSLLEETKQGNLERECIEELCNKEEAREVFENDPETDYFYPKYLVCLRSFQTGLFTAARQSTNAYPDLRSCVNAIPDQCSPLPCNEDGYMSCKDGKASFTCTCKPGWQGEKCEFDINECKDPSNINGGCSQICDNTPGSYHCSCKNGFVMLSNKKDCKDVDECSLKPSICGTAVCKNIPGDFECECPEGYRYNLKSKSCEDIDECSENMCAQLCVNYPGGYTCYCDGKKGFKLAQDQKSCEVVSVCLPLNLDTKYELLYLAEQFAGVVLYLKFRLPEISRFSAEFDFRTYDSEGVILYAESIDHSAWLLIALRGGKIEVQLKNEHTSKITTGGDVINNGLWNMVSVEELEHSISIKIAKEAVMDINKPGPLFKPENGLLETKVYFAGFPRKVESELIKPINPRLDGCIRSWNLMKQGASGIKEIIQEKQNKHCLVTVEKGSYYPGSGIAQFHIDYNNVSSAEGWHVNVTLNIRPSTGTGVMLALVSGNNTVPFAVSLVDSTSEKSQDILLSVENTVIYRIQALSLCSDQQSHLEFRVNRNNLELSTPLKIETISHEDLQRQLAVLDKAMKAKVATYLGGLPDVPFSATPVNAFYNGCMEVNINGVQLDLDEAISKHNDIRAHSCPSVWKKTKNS

T2: activated factor V (FVa), wild type (UniProt P12259 29-737; P12259 1574-2224)
T2 construct: FVa heavy chain (A1-A2), cut from full-length recombinant FV by thrombin; FVa light chain (A3-C1-C2), cut from full-length recombinant FV by thrombin with release of the B domain; FV cDNA in vector pED from Dr Rodney Camire; also called WT FVa; factor Va
T2 sequence (looked up) 1: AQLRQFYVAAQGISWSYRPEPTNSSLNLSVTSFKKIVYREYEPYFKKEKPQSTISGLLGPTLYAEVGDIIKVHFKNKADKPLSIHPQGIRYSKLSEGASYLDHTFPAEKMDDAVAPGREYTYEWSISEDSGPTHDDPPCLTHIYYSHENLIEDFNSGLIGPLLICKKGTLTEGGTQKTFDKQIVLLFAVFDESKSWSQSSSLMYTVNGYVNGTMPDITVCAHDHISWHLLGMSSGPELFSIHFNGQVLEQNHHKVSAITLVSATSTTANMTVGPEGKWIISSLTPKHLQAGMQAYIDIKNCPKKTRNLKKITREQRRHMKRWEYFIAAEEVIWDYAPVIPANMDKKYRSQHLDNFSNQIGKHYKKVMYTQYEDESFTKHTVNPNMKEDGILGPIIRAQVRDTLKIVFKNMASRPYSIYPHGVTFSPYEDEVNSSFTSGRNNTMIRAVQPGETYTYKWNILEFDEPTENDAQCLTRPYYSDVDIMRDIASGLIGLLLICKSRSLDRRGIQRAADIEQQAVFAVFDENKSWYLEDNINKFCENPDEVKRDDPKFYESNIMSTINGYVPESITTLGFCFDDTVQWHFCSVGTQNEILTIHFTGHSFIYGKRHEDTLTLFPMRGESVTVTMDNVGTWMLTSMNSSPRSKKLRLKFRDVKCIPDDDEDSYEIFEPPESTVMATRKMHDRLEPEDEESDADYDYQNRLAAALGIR
T2 sequence (looked up) 2: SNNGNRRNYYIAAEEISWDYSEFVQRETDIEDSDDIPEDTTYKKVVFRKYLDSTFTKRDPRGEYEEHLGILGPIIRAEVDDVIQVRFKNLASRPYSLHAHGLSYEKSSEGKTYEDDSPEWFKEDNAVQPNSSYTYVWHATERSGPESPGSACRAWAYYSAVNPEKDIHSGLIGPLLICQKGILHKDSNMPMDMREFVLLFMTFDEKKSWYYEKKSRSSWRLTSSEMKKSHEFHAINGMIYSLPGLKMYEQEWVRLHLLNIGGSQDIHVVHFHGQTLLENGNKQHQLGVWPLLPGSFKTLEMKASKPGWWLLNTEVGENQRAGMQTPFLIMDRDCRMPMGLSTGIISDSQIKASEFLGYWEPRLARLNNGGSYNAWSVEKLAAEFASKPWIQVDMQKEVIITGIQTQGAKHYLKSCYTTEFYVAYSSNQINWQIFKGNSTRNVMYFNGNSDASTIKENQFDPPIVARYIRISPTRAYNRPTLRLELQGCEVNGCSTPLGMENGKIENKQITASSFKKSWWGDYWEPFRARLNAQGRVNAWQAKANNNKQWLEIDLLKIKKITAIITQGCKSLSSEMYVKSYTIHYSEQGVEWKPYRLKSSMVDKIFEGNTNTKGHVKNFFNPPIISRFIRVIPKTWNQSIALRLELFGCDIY

T3: β-chain-containing C4b-binding protein (C4BP), protein S-free (human, UniProt P04003 49-597; P20851 18-252)
T3 construct: source: purified from pooled fresh frozen citrated human plasma
T3 sequence (looked up) 1: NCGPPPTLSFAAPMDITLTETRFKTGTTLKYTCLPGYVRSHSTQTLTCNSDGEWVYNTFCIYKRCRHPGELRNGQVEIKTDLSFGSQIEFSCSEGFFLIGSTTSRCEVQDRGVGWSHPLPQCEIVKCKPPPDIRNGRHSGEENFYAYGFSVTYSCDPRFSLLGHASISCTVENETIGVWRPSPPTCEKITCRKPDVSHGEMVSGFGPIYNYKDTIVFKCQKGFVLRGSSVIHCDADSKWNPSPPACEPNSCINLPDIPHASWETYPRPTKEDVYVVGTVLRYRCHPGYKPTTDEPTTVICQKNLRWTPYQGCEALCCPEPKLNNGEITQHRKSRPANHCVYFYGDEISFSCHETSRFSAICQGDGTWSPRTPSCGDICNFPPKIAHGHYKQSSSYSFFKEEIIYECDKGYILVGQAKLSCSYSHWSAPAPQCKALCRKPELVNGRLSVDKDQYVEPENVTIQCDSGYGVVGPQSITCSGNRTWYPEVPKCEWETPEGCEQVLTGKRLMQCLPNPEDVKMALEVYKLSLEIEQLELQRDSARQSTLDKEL
T3 sequence (looked up) 2: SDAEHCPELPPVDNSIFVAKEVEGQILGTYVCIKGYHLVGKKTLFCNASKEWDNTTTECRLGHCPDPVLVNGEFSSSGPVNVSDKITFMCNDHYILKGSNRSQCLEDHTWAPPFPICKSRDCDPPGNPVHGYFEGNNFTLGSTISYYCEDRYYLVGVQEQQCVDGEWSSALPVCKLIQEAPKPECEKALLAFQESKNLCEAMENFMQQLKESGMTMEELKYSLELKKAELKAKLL


Experiments:
protein S (wild type) = target: T1, protein S (wild type)
[1] = target: T2, activated factor V (FVa), wild type; test: flow cytometry on phospholipid-coated magnetic beads; as a2, with 200 nmol/L β-chain-containing C4BP pre-incubated with 100 nmol/L protein S and 25 nmol/L FVa for 10 min before 50 nmol/L APC-Fluor; settings: both partners purified
[2] = target: T3, β-chain-containing C4b-binding protein …; test: as above; settings: both partners purified

FVa inactivation assay (remaining FVa activity by prothrombinase assay): protein S needed for inactivation comparable to WT FVa at 3 nmol/L protein S; 0.25 nmol/L APC, 25 μmol/L phospholipids, 10 min (protein S (wild type)) [nmol/L] | FVa inactivation assay in the presence of protein S: APC (0-0.25 nmol/L) that reduces FVa activity by ~50%; 25 μmol/L phospholipids, 10 min (protein S (wild type)) [pmol/L] | binding result [1] | binding result [2] | Molecule
> 50 | > 50 |  |  | activated factor V Nara (FVa^Nara, W1920R) (from UniProt P12259 29-737; P12259 1574-2224) (natural protein)
 |  | binds | binds | protein S (wild type) (natural protein, UniProt P07225 42-676, looked up, gamma-carboxyglutamate at 36 (printed as Gla36), protein S, wild type; also called WT protein S; PS; source: HEK293 cells, stably transfected, purified (barium citrate precipitation, anion exchange chromatography)) ANSLLEETKQGNLERECIEELCNKEEAREVFENDPETDYFYPKYLVCLRSFQTGLFTAARQSTNAYPDLRSCVNAIPDQCSPLPCNEDGYMSCKDGKASFTCTCKPGWQGEKCEFDINECKDPSNINGGCSQICDNTPGSYHCSCKNGFVMLSNKKDCKDVDECSLKPSICGTAVCKNIPGDFECECPEGYRYNLKSKSCEDIDECSENMCAQLCVNYPGGYTCYCDGKKGFKLAQDQKSCEVVSVCLPLNLDTKYELLYLAEQFAGVVLYLKFRLPEISRFSAEFDFRTYDSEGVILYAESIDHSAWLLIALRGGKIEVQLKNEHTSKITTGGDVINNGLWNMVSVEELEHSISIKIAKEAVMDINKPGPLFKPENGLLETKVYFAGFPRKVESELIKPINPRLDGCIRSWNLMKQGASGIKEIIQEKQNKHCLVTVEKGSYYPGSGIAQFHIDYNNVSSAEGWHVNVTLNIRPSTGTGVMLALVSGNNTVPFAVSLVDSTSEKSQDILLSVENTVIYRIQALSLCSDQQSHLEFRVNRNNLELSTPLKIETISHEDLQRQLAVLDKAMKAKVATYLGGLPDVPFSATPVNAFYNGCMEVNINGVQLDLDEAISKHNDIRAHSCPSVWKKTKNS
